What all share (test): SPR (BIACORE), antibody captured, FcgR analyte
Test [1] concerns the target T1, cynomolgus monkey FcγRIIa2 extracellular domain with C-terminal His-tag (cynomolgus monkey).
T1 construct: also called cyno FcgRIIa2; cynoFcγRIIa2
T1 chain: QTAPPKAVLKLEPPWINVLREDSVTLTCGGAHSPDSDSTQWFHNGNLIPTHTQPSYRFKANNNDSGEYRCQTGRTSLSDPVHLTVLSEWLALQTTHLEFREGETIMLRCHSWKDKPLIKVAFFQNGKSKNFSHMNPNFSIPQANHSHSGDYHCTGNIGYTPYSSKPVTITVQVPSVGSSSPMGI

In test [2] the target is T2, cynomolgus monkey FcγRIIa3 extracellular domain with C-terminal His-tag (cynomolgus monkey).
T2 construct: also called cyno FcgRIIa3; cynoFcγRIIa3
T2 chain: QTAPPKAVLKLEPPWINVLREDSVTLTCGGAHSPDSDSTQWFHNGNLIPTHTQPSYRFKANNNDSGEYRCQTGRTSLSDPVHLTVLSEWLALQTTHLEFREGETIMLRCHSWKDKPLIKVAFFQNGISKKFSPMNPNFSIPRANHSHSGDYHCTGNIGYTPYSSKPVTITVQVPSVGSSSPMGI

Test [3] addresses T3, cynomolgus monkey FcγRIIb extracellular domain with C-terminal His-tag (cynomolgus monkey).
T3 construct: also called cyno FcgRIIb; cynoFcγRIIb
T3 chain: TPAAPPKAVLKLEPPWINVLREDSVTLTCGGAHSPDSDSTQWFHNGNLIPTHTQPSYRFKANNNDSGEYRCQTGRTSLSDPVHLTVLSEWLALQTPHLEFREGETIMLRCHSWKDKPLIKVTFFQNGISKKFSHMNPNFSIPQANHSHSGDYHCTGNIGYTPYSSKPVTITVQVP

The target of test [4] is T4, cynomolgus monkey FcγRIIIaS extracellular domain with C-terminal His-tag (cynomolgus monkey, UniProt Q8SPW2 21-206 at identity 1.00)).
T4 construct: also called cyno FcgRIIIaS; cynoFcγRIIIaS
T4 chain: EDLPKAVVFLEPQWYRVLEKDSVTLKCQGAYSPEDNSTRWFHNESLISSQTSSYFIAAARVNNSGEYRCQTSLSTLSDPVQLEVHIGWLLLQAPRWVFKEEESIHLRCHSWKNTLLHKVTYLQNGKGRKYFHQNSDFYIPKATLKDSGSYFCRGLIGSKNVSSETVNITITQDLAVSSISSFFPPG

Test [5] deals with T5, human FcγRIIaH extracellular domain with C-terminal His-tag (human, UniProt P12318 34-217).
T5 construct: also called human FcgRIIaH; FcγRIIa (type H)
T5 sequence: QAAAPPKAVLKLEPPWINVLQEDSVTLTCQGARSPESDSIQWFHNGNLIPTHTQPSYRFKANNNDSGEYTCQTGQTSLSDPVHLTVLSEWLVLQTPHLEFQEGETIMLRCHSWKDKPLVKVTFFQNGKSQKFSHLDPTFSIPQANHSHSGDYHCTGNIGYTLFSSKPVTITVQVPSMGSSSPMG

Test [6] concerns the target T6, human FcγRIIaR extracellular domain with C-terminal His-tag (human, UniProt P12318 34-217).
T6 construct: also called human FcgRIIaR; FcγRIIa (type R)
T6 chain: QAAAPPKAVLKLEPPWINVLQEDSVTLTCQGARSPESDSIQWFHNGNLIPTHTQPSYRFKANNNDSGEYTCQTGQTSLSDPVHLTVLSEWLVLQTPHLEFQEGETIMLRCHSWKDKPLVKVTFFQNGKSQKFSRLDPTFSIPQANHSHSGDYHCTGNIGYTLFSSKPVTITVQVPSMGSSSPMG

In test [7] the target is T7, human FcγRIIb extracellular domain with C-terminal His-tag (human, UniProt P31994 43-217).
T7 construct: also called human FcgRIIb
T7 sequence: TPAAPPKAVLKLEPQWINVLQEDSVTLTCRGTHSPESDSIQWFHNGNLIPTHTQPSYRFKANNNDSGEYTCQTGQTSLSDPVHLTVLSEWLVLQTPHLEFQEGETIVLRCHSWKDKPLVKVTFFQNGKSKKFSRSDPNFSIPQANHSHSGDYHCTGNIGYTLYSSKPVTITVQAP

B1: M103205H795-MY340/M103202L889-SK1 (antibody, human IgG1, kappa)
heavy: QVTLKESGPVLVKPTETLTLTCTVSGIDLSHDDISWVRQAPGKGLEWVGIISYAGSTYYASWAKGRLTISKDTSKNQVVLTMTNMDPVDTATYYCARGVPAYSHGGDLWGQGTLVTVSSASTKGPSVFPLAPSSKSTSGGTAALGCLVKDYFPEPVTVSWNSGALTSGVHTFPAVLQSSGLYSLSSVVTVPSSSLGTQTYICNVNHKPSNTKVDKKVEPKSCDKTHTCPPCPAPELLLGPSVFLFPPKPKDTLMISRTPEVTCVVVDVSDEDPEVKFNWYVDGVEVHNAKTKPREELYNSTYRVVSVLTVLHQDWLNGKEYKCKVSNKALPKPIEKTISKAKGQPREPQVYTLPPSREEMTKNQVSLTCLVKGFYPSDIAVEWESNGQPENNYKTTPKVLDSDGSFFLYSKLTVDKSRWQQGNVFSCSVMHEALHNHYTQKSLSLSP
light: DIVMTQSPATLSLSPGERATLSCTSSQSVYHANWLSWFQQKPGQPPKLLIYWASTLAYGVPSRFSGSGSGTDFTLTISSLQPEDAATYYCAGGYGGGRYAFGQGTKVEIKRTVAAPSVFIFPPSDEQLKSGTASVVCLLNNFYPREAKVQWKVDNALQSGNSQESVTEQDSKDSTYSLSSTLTLSKADYEKHKVYACEVTHQGLSSPVTKSFNRGEC
notes: Substitutions introduced into M103205H795-SG1, expressed with M103202L889-SK1 as light chain; EU numbering
In the case of B1, the Kd in test [1] worked out at 4900 nM; in test [2] it was 23000 nM; in test [3], 1100 nM; in test [4] it was 2300 nM; in test [5], 310 nM; in test [6], 830 nM. Further, binding in test [7] was put at a Kd of 3300 nM.

B2: M103205H795-MY386/M103202L889-SK1 (antibody, human IgG1, kappa)
heavy: QVTLKESGPVLVKPTETLTLTCTVSGIDLSHDDISWVRQAPGKGLEWVGIISYAGSTYYASWAKGRLTISKDTSKNQVVLTMTNMDPVDTATYYCARGVPAYSHGGDLWGQGTLVTVSSASTKGPSVFPLAPSSKSTSGGTAALGCLVKDYFPEPVTVSWNSGALTSGVHTFPAVLQSSGLYSLSSVVTVPSSSLGTQTYICNVNHKPSNTKVDKKVEPKSCDKTHTCPPCPAPELLLGPSVFLFPPKPKDTLMISRTPEVTCVVVDVSDEDPEVKFNWYVDGVEVHNAKTKPREELYNSTYRVVSVLTVLHQDWLNGKEYKCKVSNTALPKPIEKTISKAKGQPREPQVYTLPPSREEMTKNQVSLTCLVKGFYPSDIAVEWESNGQPENNYKTTPPVLDSDGSFFLYSKLTVDKSRWQQGNVFSCSVMHEALHNHYTQKSLSLSP
light: DIVMTQSPATLSLSPGERATLSCTSSQSVYHANWLSWFQQKPGQPPKLLIYWASTLAYGVPSRFSGSGSGTDFTLTISSLQPEDAATYYCAGGYGGGRYAFGQGTKVEIKRTVAAPSVFIFPPSDEQLKSGTASVVCLLNNFYPREAKVQWKVDNALQSGNSQESVTEQDSKDSTYSLSSTLTLSKADYEKHKVYACEVTHQGLSSPVTKSFNRGEC
notes: as for B1
Turning to B2, the Kd in test [1] was 5600 nM; in test [2] it was 16000 nM; in test [3] it was 1500 nM; in test [4], 2500 nM; in test [5] it was 810 nM; in test [6], 1700 nM. The Kd in test [7] amounted to 4600 nM.

B3: M103205H795-MY380/M103202L889-SK1 (antibody, human IgG1, kappa)
heavy: QVTLKESGPVLVKPTETLTLTCTVSGIDLSHDDISWVRQAPGKGLEWVGIISYAGSTYYASWAKGRLTISKDTSKNQVVLTMTNMDPVDTATYYCARGVPAYSHGGDLWGQGTLVTVSSASTKGPSVFPLAPSSKSTSGGTAALGCLVKDYFPEPVTVSWNSGALTSGVHTFPAVLQSSGLYSLSSVVTVPSSSLGTQTYICNVNHKPSNTKVDKKVEPKSCDKTHTCPPCPAPELLNGPSVFLFPPKPKDTLMISRTPEVTCVVVDVSEEDPEVKFNWYVDGVEVHNAKTKPREEQYNSTYRVVSVLTVLHQDWLNGKEYKCKVSNKALPKPIEKTISKAKGQPREPQVYTLPPSREEMTKNQVSLTCLVKGFYPSDIAVEWESNGQPENNYKTTPKVLDSDGSFFLYSKLTVDKSRWQQGNVFSCSVMHEALHNHYTQKSLSLSP
light: DIVMTQSPATLSLSPGERATLSCTSSQSVYHANWLSWFQQKPGQPPKLLIYWASTLAYGVPSRFSGSGSGTDFTLTISSLQPEDAATYYCAGGYGGGRYAFGQGTKVEIKRTVAAPSVFIFPPSDEQLKSGTASVVCLLNNFYPREAKVQWKVDNALQSGNSQESVTEQDSKDSTYSLSSTLTLSKADYEKHKVYACEVTHQGLSSPVTKSFNRGEC
notes: as for B1
Take B3: the Kd worked out at 1000 nM in test [1]; 3300 nM in test [2]; 290 nM in test [3]; 2800 nM in test [4]; 430 nM in test [5]; 850 nM in test [6]. The Kd in test [7] worked out at 480 nM.

B4: M103205H795-MY341/M103202L889-SK1 (antibody, human IgG1, kappa)
heavy: QVTLKESGPVLVKPTETLTLTCTVSGIDLSHDDISWVRQAPGKGLEWVGIISYAGSTYYASWAKGRLTISKDTSKNQVVLTMTNMDPVDTATYYCARGVPAYSHGGDLWGQGTLVTVSSASTKGPSVFPLAPSSKSTSGGTAALGCLVKDYFPEPVTVSWNSGALTSGVHTFPAVLQSSGLYSLSSVVTVPSSSLGTQTYICNVNHKPSNTKVDKKVEPKSCDKTHTCPPCPAPELLLGPSVFLFPPKPKDTLMISRTPEVTCVVVDVSDEDPEVKFNWYVDGVEVHNAKTKPREELYNSTYRVVSVLTVLHQDWLNGKEYKCKVSNTALPKPIEKTISKAKGQPREPQVYTLPPSREEMTKNQVSLTCLVKGFYPSDIAVEWESNGQPENNYKTTPKVLDSDGSFFLYSKLTVDKSRWQQGNVFSCSVMHEALHNHYTQKSLSLSP
light: DIVMTQSPATLSLSPGERATLSCTSSQSVYHANWLSWFQQKPGQPPKLLIYWASTLAYGVPSRFSGSGSGTDFTLTISSLQPEDAATYYCAGGYGGGRYAFGQGTKVEIKRTVAAPSVFIFPPSDEQLKSGTASVVCLLNNFYPREAKVQWKVDNALQSGNSQESVTEQDSKDSTYSLSSTLTLSKADYEKHKVYACEVTHQGLSSPVTKSFNRGEC
notes: as for B1
Turning to B4, the dissociation constant Kd in test [1] was found to be 2900 nM; in test [2] it was 8800 nM; in test [3], 600 nM; in test [4], 340 nM; in test [5] it was 260 nM; in test [6], 420 nM. Moreover, in test [7], the Kd amounted to 1800 nM.

B5: M103205H795-MY342/M103202L889-SK1 (antibody, human IgG1, kappa)
heavy: QVTLKESGPVLVKPTETLTLTCTVSGIDLSHDDISWVRQAPGKGLEWVGIISYAGSTYYASWAKGRLTISKDTSKNQVVLTMTNMDPVDTATYYCARGVPAYSHGGDLWGQGTLVTVSSASTKGPSVFPLAPSSKSTSGGTAALGCLVKDYFPEPVTVSWNSGALTSGVHTFPAVLQSSGLYSLSSVVTVPSSSLGTQTYICNVNHKPSNTKVDKKVEPKSCDKTHTCPPCPAPELLLGPSVFLFPPKPKDTLMISRTPEVTCVVVDVSDEDPEVKFNWYVDGVEVHNAKTKPREELYNSTYRVVSVLTVLHQDWLNGKEYKCKVSNKALPKPIEKTISKAKGQPREPQVYTLPPSREEMTKNQVSLTCLVKGFYPSDIAVEWESNGQPENNYKTTPMVLDSDGSFFLYSKLTVDKSRWQQGNVFSCSVMHEALHNHYTQKSLSLSP
light: DIVMTQSPATLSLSPGERATLSCTSSQSVYHANWLSWFQQKPGQPPKLLIYWASTLAYGVPSRFSGSGSGTDFTLTISSLQPEDAATYYCAGGYGGGRYAFGQGTKVEIKRTVAAPSVFIFPPSDEQLKSGTASVVCLLNNFYPREAKVQWKVDNALQSGNSQESVTEQDSKDSTYSLSSTLTLSKADYEKHKVYACEVTHQGLSSPVTKSFNRGEC
notes: as for B1
Take B5: the Kd amounted to 8500 nM in test [1]; 51000 nM in test [2]; 1300 nM in test [3]; 2600 nM in test [4]; 370 nM in test [5]; 1000 nM in test [6]. The molecule also came in with a dissociation constant Kd in test [7] of 3900 nM.

Source of the values: patent publication US20200317768A1 (published 2020).
